{"source": "patent US20220332804A1", "about": "(CSL INNOVATION, published 2022)", "binders": {"B1": {"name": "RF16-242 (antibody, human IgG4 S228P, lambda, V domains shown)", "VH": "EVQLLQSGAEVKKPGESLKISCKGSGYSFTSYWIGWVRQMPGKGLEWMGIIYPGDSDTRYSPSFQGQVTISADKSISTAYLQWSSLKASDTAMYYCARRGHYGDYFDYWGQGTLVTVSS", "VL": "SYELTQPPSVSVSPGQTARITCSGDALPKKYAYWYHQKSGQAPVLVIYEDRRRPSEIPERFSGSSSGTMATLTITGAQVEDEGVYFCYSRDRAGNQRVFGGGTQLTVLG", "notes": "pH-dependent anti-C2 antibody from a phage display library"}}, "assay_in_all_cases": "SPR, antibody captured, C2 as analyte;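 further: biacore at 37 °C, anti-C2 mAbs held by immobilised goat anti-human IgG, C2 alanine or serine mutants injected, double-referenced sensorgrams fitted to a 1:1 kinetic or steady-state model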", "key": {"human C2 A326S": {"molecular_target": "T1, human C2 A326S (human, UniProt P06681 21-752)", "T1 sequence": "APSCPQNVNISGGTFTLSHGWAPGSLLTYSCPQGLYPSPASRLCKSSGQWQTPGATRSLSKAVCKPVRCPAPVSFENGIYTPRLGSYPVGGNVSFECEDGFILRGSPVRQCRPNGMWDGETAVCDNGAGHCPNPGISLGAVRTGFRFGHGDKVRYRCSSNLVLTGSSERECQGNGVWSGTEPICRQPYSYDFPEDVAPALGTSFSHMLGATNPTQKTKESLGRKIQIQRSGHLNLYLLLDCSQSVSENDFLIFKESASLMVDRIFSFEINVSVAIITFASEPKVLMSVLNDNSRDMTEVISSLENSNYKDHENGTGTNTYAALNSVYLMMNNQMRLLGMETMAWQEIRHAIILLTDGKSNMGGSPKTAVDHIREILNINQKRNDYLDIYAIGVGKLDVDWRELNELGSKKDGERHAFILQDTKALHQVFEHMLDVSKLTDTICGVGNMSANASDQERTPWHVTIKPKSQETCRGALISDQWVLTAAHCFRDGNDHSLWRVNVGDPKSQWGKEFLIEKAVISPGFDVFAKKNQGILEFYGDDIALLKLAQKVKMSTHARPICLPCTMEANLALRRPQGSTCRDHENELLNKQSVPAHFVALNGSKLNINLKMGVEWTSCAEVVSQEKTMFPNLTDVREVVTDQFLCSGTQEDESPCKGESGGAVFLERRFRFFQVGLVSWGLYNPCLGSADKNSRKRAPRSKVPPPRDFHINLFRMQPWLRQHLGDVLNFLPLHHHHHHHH", "procedure": "(§1) Surface plasmon resonance (SPR, Biacore) was used for all binding affinity analyses. In brief, goat anti-human IgG was directly immobilised onto the carboxymethyl dextran surface of CM5 sensorchips to approximately 12,000 RU using standard NHS/EDC chemistry at pH 5. The immobilised antibody surface was pre-conditioned with ten injections of polyclonal human IgG (Privigen 60 s) prepared at 1 μg/mL. Ligands (anti-C2 mAbs) were captured at the beginning of each cycle as described below. An adjacent spot or flow cell in which only Polyclonal IgG was capture was used as a reference surface. The goat anti-human IgG Fc antibody surface was regenerate in 100 mM H3PO4, injected for 45 seconds at the end of each cycle. Experiments were performed at 37° C. and the flow rate of each experiment was kept constant at 30 μL/min.\n(§2) Sensogram data was double-referenced against a reference anti-IgG surface (i.e. minus anti-C2 mAb) and blank buffer injections obtained within each experiment. The binding data was fit to 1:1 (kinetic or steady-state) model using local Rmax and null refraction index (RI=0) when appropriate. Buffers and solutions were filtered (0.22 μm) prior to use."}, "human C2 E433A": {"molecular_target": "T2, human C2 E433A (human, UniProt P06681 21-752)", "T2 sequence": "T1 sequence with S306A, E413A", "procedure": "as §1, §2"}, "human C2 G677A": {"molecular_target": "T3, human C2 G677A (human, UniProt P06681 21-752)", "T3 sequence": "T1 sequence with S306A, G657A", "procedure": "as §1, §2"}, "human C2 E686A": {"molecular_target": "T4, human C2 E686A (human, UniProt P06681 21-752)", "T4 sequence": "T1 sequence with S306A, E666A", "procedure": "as §1, §2"}}, "note": "Numbering of substitutions follows the chain as printed.", "data": [{"binder": "B1", "values": [{"measurement": "Kd", "setting": "human C2 A326S", "value": 9.9, "unit": "nM"}, {"measurement": "Kd", "setting": "human C2 E433A", "value": 3, "unit": "nM"}, {"measurement": "Kd", "setting": "human C2 G677A", "value": 6.8, "unit": "nM"}, {"measurement": "Kd", "setting": "human C2 E686A", "value": 32.6, "unit": "nM"}]}]}
